Reference: patent publication EP0927045B1 (The Burnham Institute, dated 1998)
Where no end group is shown, it is not given here.

Molecular target: αvβ3 integrin expressed on blood vessels forming in the tumor
Experiment: cell-based or functional assay

B1: phage expressing the RGD-containing peptide CDCRGDCFC (SEQ ID NO: 1) (peptide)
chain: CDCRGDCFC
modifications: not fully specified (bridges); cysteine pairing not given here; also: peptide displayed on filamentous phage (fuse5), up to five copies
  phage concentrated in the breast tumor after iv injection (in vivo homing), RGD phage against unselected phage: 80 fold
